The chains are these.
B1: XPA23 heavy chain N104L (Fab, V domains shown)
VH: EVQLLESGGGLVQPGGSLRLSCAASGFTFSKYFMFWVRQAPGKGLEWVSVISPSGGMTRYADSVKGRFTISRDNSKNTLYLQMNSLRAEDTAVYYCARVGYGGLSDYWGQGTLVTVSS
VL: DIQMTQSPSSVSASVGDRLTIICRASQDINRWLAWYQQTPGNAPKLLIHSATSLQSGVPSRFSGSGSGTDFTLTINSLQPEDFATYYCQQADSFPLTFGGGTKVEIK
notes: Fab, periplasmic extract; also called C5A N104L
B2: XPA23 heavy chain S30L (Fab, V domains shown)
VH: B1 VH with S30L, L104N
VL: B1 VL
notes: Fab, periplasmic extract; also called C5A S30L
B3: XPA23 heavy chain T58L (Fab, V domains shown)
VH: B1 VH with T58L, L104N
VL: B1 VL
notes: Fab, periplasmic extract; also called C5A T58L
B4: XPA23 heavy chain S54L (Fab, V domains shown)
VH: B1 VH with S54L, L104N
VL: B1 VL
notes: Fab, periplasmic extract; also called C5A S54L
B5: XPA23 heavy chain S52G (Fab, V domains shown)
VH: B1 VH with S52G, L104N
VL: B1 VL
notes: Fab, periplasmic extract; also called C5A S52G
B6: XPA23 heavy chain T58V (Fab, V domains shown)
VH: B1 VH with T58V, L104N
VL: B1 VL
notes: Fab, periplasmic extract; also called C5A T58V
B7: XPA23 heavy chain T58G (Fab, V domains shown)
VH: B1 VH with T58G, L104N
VL: B1 VL
notes: Fab, periplasmic extract; also called C5A T58G
B8: XPA23 heavy chain R59P (Fab, V domains shown)
VH: B1 VH with R59P, L104N
VL: B1 VL
notes: Fab, periplasmic extract; also called C5A R59P
B9: XPA23 heavy chain T58A (Fab, V domains shown)
VH: B1 VH with T58A, L104N
VL: B1 VL
notes: Fab, periplasmic extract; also called C5A T58A
B10: XPA23 heavy chain S54G (Fab, V domains shown)
VH: B1 VH with S54G, L104N
VL: B1 VL
notes: Fab, periplasmic extract; also called C5A S54G
B11: XPA23 heavy chain N104V (Fab, V domains shown)
VH: B1 VH with L104V
VL: B1 VL
notes: Fab, periplasmic extract; also called C5A N104V
B12: XPA23 heavy chain P53A (Fab, V domains shown)
VH: B1 VH with P53A, L104N
VL: B1 VL
notes: Fab, periplasmic extract; also called C5A P53A
B13: XPA23 heavy chain N104T (Fab, V domains shown)
VH: B1 VH with L104T
VL: B1 VL
notes: Fab, periplasmic extract; also called C5A N104T
B14: XPA23 heavy chain S54A (Fab, V domains shown)
VH: B1 VH with S54A, L104N
VL: B1 VL
notes: Fab, periplasmic extract; also called C5A S54A
B15: XPA23 heavy chain S52A (Fab, V domains shown)
VH: B1 VH with S52A, L104N
VL: B1 VL
notes: Fab, periplasmic extract; also called C5A S52A
B16: XPA23 heavy chain R59L (Fab, V domains shown)
VH: B1 VH with R59L, L104N
VL: B1 VL
notes: Fab, periplasmic extract; also called C5A R59L
B17: XPA23 heavy chain P53V (Fab, V domains shown)
VH: B1 VH with P53V, L104N
VL: B1 VL
notes: Fab, periplasmic extract; also called C5A P53V
B18: XPA23 heavy chain P53L (Fab, V domains shown)
VH: B1 VH with P53L, L104N
VL: B1 VL
notes: Fab, periplasmic extract; also called C5A P53L
B19: XPA23 heavy chain S105T (Fab, V domains shown)
VH: B1 VH with L104N, S105T
VL: B1 VL
notes: Fab, periplasmic extract; also called C5A S105T
B20: XPA23 heavy chain S105I (Fab, V domains shown)
VH: B1 VH with L104N, S105I
VL: B1 VL
notes: Fab, periplasmic extract; also called C5A S105I
B21: XPA23 heavy chain R59G (Fab, V domains shown)
VH: B1 VH with R59G, L104N
VL: B1 VL
notes: Fab, periplasmic extract; also called C5A R59G
B22: XPA23 heavy chain S54T (Fab, V domains shown)
VH: B1 VH with S54T, L104N
VL: B1 VL
notes: Fab, periplasmic extract; also called C5A S54T
B23: XPA23 heavy chain V50A (Fab, V domains shown)
VH: B1 VH with V50A, L104N
VL: B1 VL
notes: Fab, periplasmic extract; also called C5A V50A
B24: XPA23 heavy chain S105G (Fab, V domains shown)
VH: B1 VH with L104N, S105G
VL: B1 VL
notes: Fab, periplasmic extract; also called C5A S105G
B25: XPA23 heavy chain S54I (Fab, V domains shown)
VH: B1 VH with S54I, L104N
VL: B1 VL
notes: Fab, periplasmic extract; also called C5A S54I
B26: XPA23 heavy chain S105V (Fab, V domains shown)
VH: B1 VH with L104N, S105V
VL: B1 VL
notes: Fab, periplasmic extract; also called C5A S105V
B27: XPA23 heavy chain S52T (Fab, V domains shown)
VH: B1 VH with S52T, L104N
VL: B1 VL
notes: Fab, periplasmic extract; also called C5A S52T
B28: XPA23 heavy chain T58I (Fab, V domains shown)
VH: B1 VH with T58I, L104N
VL: B1 VL
notes: Fab, periplasmic extract; also called C5A T58I
B29: XPA23 heavy chain P53G (Fab, V domains shown)
VH: B1 VH with P53G, L104N
VL: B1 VL
notes: Fab, periplasmic extract; also called C5A P53G
B30: XPA23 heavy chain S30G (Fab, V domains shown)
VH: B1 VH with S30G, L104N
VL: B1 VL
notes: Fab, periplasmic extract; also called C5A S30G
B31: XPA23 heavy chain S105A (Fab, V domains shown)
VH: B1 VH with L104N, S105A
VL: B1 VL
notes: Fab, periplasmic extract; also called C5A S105A
B32: XPA23 heavy chain S54V (Fab, V domains shown)
VH: B1 VH with S54V, L104N
VL: B1 VL
notes: Fab, periplasmic extract; also called C5A S54V
B33: XPA23 heavy chain S105P (Fab, V domains shown)
VH: B1 VH with L104N, S105P
VL: B1 VL
notes: Fab, periplasmic extract; also called C5A S105P
B34: XPA23 heavy chain S30I (Fab, V domains shown)
VH: B1 VH with S30I, L104N
VL: B1 VL
notes: Fab, periplasmic extract; also called C5A S30I
B35: XPA23 heavy chain S54P (Fab, V domains shown)
VH: B1 VH with S54P, L104N
VL: B1 VL
notes: Fab, periplasmic extract; also called C5A S54P
B36: XPA23 heavy chain S52V (Fab, V domains shown)
VH: B1 VH with S52V, L104N
VL: B1 VL
notes: Fab, periplasmic extract; also called C5A S52V
B37: XPA23 heavy chain P53I (Fab, V domains shown)
VH: B1 VH with P53I, L104N
VL: B1 VL
notes: Fab, periplasmic extract; also called C5A P53I
B38: XPA23 heavy chain S30T (Fab, V domains shown)
VH: B1 VH with S30T, L104N
VL: B1 VL
notes: Fab, periplasmic extract; also called C5A S30T
B39: XPA23 heavy chain S52P (Fab, V domains shown)
VH: B1 VH with S52P, L104N
VL: B1 VL
notes: Fab, periplasmic extract; also called C5A S52P
B40: XPA23 heavy chain S30A (Fab, V domains shown)
VH: B1 VH with S30A, L104N
VL: B1 VL
notes: Fab, periplasmic extract; also called C5A S30A
B41: XPA23 heavy chain T58P (Fab, V domains shown)
VH: B1 VH with T58P, L104N
VL: B1 VL
notes: Fab, periplasmic extract; also called C5A T58P
B42: XPA23 heavy chain R59T (Fab, V domains shown)
VH: B1 VH with R59T, L104N
VL: B1 VL
notes: Fab, periplasmic extract; also called C5A R59T

Where a chain is given by its changes, count along the chain named. Names and notes keep the numbering of the source.

In this assay the target is T1, IL-1β (UniProt P01584 117-269).
T1 construct: Antigen of XPA23
As to the kind of experiment: Biacore, Fab periplasmic extract. A general note: In SPR one partner is held on a chip, and binding of the other changes the refractive index at the surface.
As for B1, the “fold difference in affinity against the original” value (from here on “fold difference in affinity”) amounted to 1.19 fold.

Take B2: the “fold difference in affinity” value was found to be 0.91 fold.

B3: the “fold difference in affinity” value came out at 0.95 fold.

As to B4, the “fold difference in affinity” value is 0.91 fold.

On to B5, for which the “fold difference in affinity” value is 0.03 fold.

For B6, the “fold difference in affinity” value stood at 0.99 fold.

For B7, the “fold difference in affinity” value amounted to 0.95 fold.

Turning to B8, the “fold difference in affinity” value worked out at 0.07 fold.

Turning to B9, the “fold difference in affinity” value turned out to be 0.14 fold.

On to B10, for which the “fold difference in affinity” value is 1.43 fold.

As for B11, the “fold difference in affinity” value is 1.27 fold.

As for B12, the “fold difference in affinity” value is 0.05 fold.

For the molecule B13, the “fold difference in affinity” value was 0.95 fold.

In the case of B14, the “fold difference in affinity” value was 1 fold.

In the case of B15, the “fold difference in affinity” value was determined as 0.05 fold.

Regarding B16, the “fold difference in affinity” value came out at 0.08 fold.

In the case of B17, the “fold difference in affinity” value was 1.1 fold.

For B18, the “fold difference in affinity” value worked out at 0.04 fold.

For the molecule B19, the “fold difference in affinity” value worked out at 0.11 fold.

Take B20: the “fold difference in affinity” value amounted to 0.07 fold.

Regarding B21, the “fold difference in affinity” value amounted to 1.04 fold.

In the case of B22, the “fold difference in affinity” value came out at 0.14 fold.

Consider B23, for which the “fold difference in affinity” value was 0.09 fold.

Regarding B24, the “fold difference in affinity” value worked out at 0.12 fold.

Take B25: the “fold difference in affinity” value worked out at 0.86 fold.

As for B26, the “fold difference in affinity” value amounted to 0.08 fold.

Consider B27, for which the “fold difference in affinity” value was found to be 0.04 fold.

As for B28, the “fold difference in affinity” value came out at 0.95 fold.

As for B29, the “fold difference in affinity” value was 0.02 fold.

In the case of B30, the “fold difference in affinity” value was found to be 0.13 fold.

For the molecule B31, the “fold difference in affinity” value turned out to be 0.84 fold.

In the case of B32, the “fold difference in affinity” value was determined as 1 fold.

With B33, the “fold difference in affinity” value is 1.41 fold.

B34: the “fold difference in affinity” value was found to be 0.08 fold.

B35: the “fold difference in affinity” value was determined as 0.06 fold.

With B36, the “fold difference in affinity” value was found to be 0.04 fold.

For the molecule B37, the “fold difference in affinity” value is 0.08 fold.

In the case of B38, the “fold difference in affinity” value amounted to 0.06 fold.

On to B39, for which the “fold difference in affinity” value is 0.05 fold.

Take B40: the “fold difference in affinity” value was determined as 0.77 fold.

Turning to B41, the “fold difference in affinity” value was determined as 1.81 fold.

With B42, the “fold difference in affinity” value was determined as 0.76 fold.

(Values after patent US20110118131A1 (published 2011).)
